One block for each binder: values may come before it.
Columns and labels:
human PD-L1-Fc [1] = molecular target: T1, human PD-L1-Fc (human, UniProt Q9NZQ7 19-239); experiment: BLI; against L-CDR2-WT
T1 construct: also called hPD-L1-Fc; human PD-L1-Fc (Sino Biological, 70110-D02H); not shown: Fc part

human PD-L1-Fc [2] = molecular target: T1, human PD-L1-Fc; experiment: BLI; PD-L1-Fc loaded on the sensor, scFv in solution
[3] = molecular target: T2, human PD-L1 expressed on cells (human, UniProt Q9NZQ7 19-290); experiment: cell-based or functional assay
[4] = molecular target: T3, Human IL-1β protein (Sino Biological, Cat #10139) (human, UniProt P01584 117-269); experiment: cell-based or functional assay
[5] = molecular target: T4, hPD-L1 (Acro Biosystems, PD1-H5229) (human, UniProt Q9NZQ7 19-238); experiment: ELISA, hPD-L1 coated, anti-human Fc-HRP, OD450
T4 construct: also called human PD-L1; hPD-L1 protein

[6] = molecular target: T3, Human IL-1β protein (Sino Biological, …); experiment: ELISA, hIL-1β protein coated, anti-human Fc-HRP, OD450
[7] = molecular target: T2, human PD-L1 expressed on cells; experiment: flow cytometry on 293T-PD-L1-CD3L cells, Mean FITC-A as printed
[8] = molecular target: T3, Human IL-1β protein (Sino Biological, …); experiment: cell-based or functional assay; remark: listed apart in the source
human PD-L1-His [9] = molecular target: T5, human PD-L1-His (human, UniProt Q9NZQ7 19-238, limits assumed); experiment: ELISA, human PD-L1 coated, OD450
T5 construct: not shown: His tag

human PD-L1-His [10] = molecular target: T5, human PD-L1-His; experiment: ELISA, human PD-L1-His coated, anti-human IgG-HRP, OD450
human CD47 = human CD47 (human, UniProt Q08722 19-139, limits assumed); experiment: ELISA on human CD47, OD450
[11] = molecular target: T4, hPD-L1 (Acro Biosystems, PD1-H5229); experiment: ELISA on human PD-L1, OD450

Sequence of human CD47 (Q08722 19-139 limits assumed): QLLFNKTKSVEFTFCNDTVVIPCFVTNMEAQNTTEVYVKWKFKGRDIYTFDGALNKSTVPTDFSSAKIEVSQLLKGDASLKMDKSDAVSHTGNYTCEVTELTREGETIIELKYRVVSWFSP

Fold increase (human PD-L1-Fc [1]): 6.32 fold
Kd (human PD-L1-Fc [2]): 4.37 nM
kon (human PD-L1-Fc [2]): 124000 M⁻¹ s⁻¹
B1: 4B6 scFv variant L-CDR2-3 (scFv)
scFv: DIQMTQSPSSLSASVGDRVTITCKASQNVGAAVAWYQQKPGKAPKLLIYSVSDRYTGVPSRFSGSGSGTDFTLTISSLQPEDIATYYCQQYSNYPTFGQGTKLEIKGGGGSGGGGSGGGGSQVQLVQSGAEVKKPGASVKVSCKASGYVFTDYYMNWVRQAPGQSLEWMGDINPNNAGTSYNHKFKGRVTVTVDKSISTAYMELSRLRSDDTAVYYCVKWGDGPFAYWGQGTLVTVSS
notes: also called 4B6-L-CDR2-3

IC50 (so in the source), luminescence (axis printed OD450), 293T-PD-L1-CD3L cells with Jurkat-NFAT-Luc-PD1 cells [3]: 1.49 nM
IC50, IL-6 release (pg/mL) of HDF cells stimulated with human IL-1β [4]: 0.0141 nM
EC50 [5]: 0.0349 nM
EC50 [6]: 0.0155 nM
EC50 [7]: 1.4 nM
B2: IgG-scFv-XOMA052-AM4B6 (bispecific antibody)
heavy: QVQLQESGPGLVKPSQTLSLTCSFSGFSLSTSGMGVGWIRQPSGKGLEWLAHIWWDGDESYNPSLKSRLTISKDTSKNQVSLKITSVTAADTAVYFCARNRYDPPWFVDWGQGTLVTVSSASTKGPSVFPLAPSSKSTSGGTAALGCLVKDYFPEPVTVSWNSGALTSGVHTFPAVLQSSGLYSLSSVVTVPSSSLGTQTYICNVNHKPSNTKVDKKVEPKSCDKTHTCPPCPAPEFEGGPSVFLFPPKPKDTLMISRTPEVTCVVVDVSHEDPEVKFNWYVDGVEVHNAKTKPREEQYNSTYRVVSVLTVLHQDWLNGKEYKCKVSNKALPASIEKTISKAKGQPREPQVYTLPPSRDELTKNQVSLTCLVKGFYPSDIAVEWESNGQPENNYKTTPPVLDSDGSFFLYSKLTVDKSRWQQGNVFSCSVMHEALHNHYTQKSLSLSPGAGGGGSGGGGSGGGGSGGGGSQVQLVQSGAEVKKPGASVKVSCKASGYVFTDYYMNWVRQAPGQSLEWMGDINPNNAETLYNHKFKGRVTVTVDKSISTAYMELSRLRSDDTAVYYCVKWGDGPFAYWGQGTLVTVSSGGGGSGGGGSGGGGSGGGGSDIQMTQSPSSLSASVGDRVTITCKASQNVGAAVAWYQQKPGKAPKLLIYSVSDRYTGVPSRFSGSGSGTDFTLTISSLQPEDIATYYCQQYSNYPTFGQGTKLTVL
light: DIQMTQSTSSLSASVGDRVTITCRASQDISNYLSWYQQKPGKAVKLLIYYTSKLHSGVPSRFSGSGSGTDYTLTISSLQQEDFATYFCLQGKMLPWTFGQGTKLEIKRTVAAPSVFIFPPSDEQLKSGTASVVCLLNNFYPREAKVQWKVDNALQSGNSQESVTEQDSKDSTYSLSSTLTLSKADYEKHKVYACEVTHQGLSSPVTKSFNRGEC
notes: Anti-IL-1β IgG (Gevokizumab) with the AM4B6 scFv on the C-terminus of the heavy chain

IC50, SEAP at OD620, HEK293-CD40L reporter cells stimulated with human IL-1β [8]: 0.294 nM
EC50 [6]: 0.0113 nM
B3: ACZ885 (antibody, V domains shown)
VH: QVQLVESGGGVVQPGRSLRLSCAASGFTFSVYGMNWVRQAPGKGLEWVAIIWYDGDNQYYADSVKGRFTISRDNSKNTLYLQMNGLRAEDTAVYYCARDLRTGPFDYWGQGTLVTVSS
VL: EIVLTQSPDFQSVTPKEKVTITCRASQSIGSSLHWYQQKPDQSPKLLIKYASQSFSGVPSRFSGSGSGTDFTLTINSLEAEDAAAYYCHQSSSLPFTFGPGTKVDIK
notes: Monoclonal anti-IL-1β antibody; also called Canakinumab

IC50 (so in the source), luminescence (axis printed OD450), 293T-PD-L1-CD3L cells with Jurkat-NFAT-Luc-PD1 cells [3]: ~1.29 nM
IC50, SEAP at OD620, HEK293-CD40L reporter cells stimulated with human IL-1β [8]: 0.346 nM
EC50 [5]: 0.0363 nM
EC50 [6]: 0.0182 nM
EC50 [7]: 1.51 nM
B4: IgG-scFv-ACZ885-AM4B6 (bispecific antibody)
heavy: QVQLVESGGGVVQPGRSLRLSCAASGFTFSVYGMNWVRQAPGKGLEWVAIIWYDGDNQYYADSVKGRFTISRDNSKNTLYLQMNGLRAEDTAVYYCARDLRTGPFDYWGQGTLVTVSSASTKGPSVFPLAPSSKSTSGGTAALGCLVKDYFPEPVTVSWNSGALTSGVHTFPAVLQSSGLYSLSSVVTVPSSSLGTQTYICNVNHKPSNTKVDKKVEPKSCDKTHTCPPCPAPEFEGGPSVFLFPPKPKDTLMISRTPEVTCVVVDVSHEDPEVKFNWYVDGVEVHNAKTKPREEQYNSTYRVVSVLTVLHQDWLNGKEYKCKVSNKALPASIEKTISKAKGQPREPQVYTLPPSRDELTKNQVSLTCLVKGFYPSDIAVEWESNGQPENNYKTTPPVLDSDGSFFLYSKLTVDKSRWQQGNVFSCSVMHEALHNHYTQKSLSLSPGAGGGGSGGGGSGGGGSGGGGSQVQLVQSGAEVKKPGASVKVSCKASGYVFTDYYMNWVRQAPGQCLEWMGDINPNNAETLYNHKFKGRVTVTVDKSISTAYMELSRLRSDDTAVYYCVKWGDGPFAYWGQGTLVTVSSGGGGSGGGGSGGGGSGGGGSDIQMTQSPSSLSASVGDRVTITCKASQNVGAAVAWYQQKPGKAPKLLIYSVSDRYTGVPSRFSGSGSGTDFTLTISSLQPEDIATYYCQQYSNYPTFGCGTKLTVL
light: EIVLTQSPDFQSVTPKEKVTITCRASQSIGSSLHWYQQKPDQSPKLLIKYASQSFSGVPSRFSGSGSGTDFTLTINSLEAEDAAAYYCHQSSSLPFTFGPGTKVDIKRTVAAPSVFIFPPSDEQLKSGTASVVCLLNNFYPREAKVQWKVDNALQSGNSQESVTEQDSKDSTYSLSSTLTLSKADYEKHKVYACEVTHQGLSSPVTKSFNRGEC
notes: Anti-IL-1β IgG (Canakinumab) with the AM4B6 scFv on the C-terminus of the heavy chain

EC50 (human PD-L1-His [9]): 0.347 nM
EC50 (human PD-L1-His [10]): 1.04 nM
B5: Hu4B6_HdLa (antibody, human IgG1, V domains shown)
VH: QVQLVQSGAEVKKPGASVKVSCKASGYVFTDYYMNWVRQAPGQSLEWMGDINPNNGGTSYNHKFKGRVTVTVDKSISTAYMELSRLRSDDTAVYYCVKWGDGPFAYWGQGTLVTVSS
VL: DIQMTQSPSSLSASVGDRVTITCKASQNVGAAVAWYQQKPGKAPKLLIYSASNRYTGVPSRFSGSGSGTDFTLTISSLQPEDIATYYCQQYSNYPTFGQGTKLEIK

EC50 (human PD-L1-His [9]): 0.407 nM
B6: Hu4B6_HgLa (antibody, V domains shown)
VH: QVQLVQSGAEVKKPGASVKVSCKASGYVFTDYYMNWVRQAPGQSLEWMGDINPNNAGTSYNHKFKGRVTVTVDKSISTAYMELSRLRSDDTAVYYCVKWGDGPFAYWGQGTLVTVSS
VL: DIQMTQSPSSLSASVGDRVTITCKASQNVGAAVAWYQQKPGKAPKLLIYSASNRYTGVPSRFSGSGSGTDFTLTISSLQPEDIATYYCQQYSNYPTFGQGTKLEIK
notes: Hu4B6_Hd with G55A, paired with Hu4B6_La

EC50 (human CD47): 0.24 nM
EC50 [11]: 0.154 nM
B7: AM4B6-hIgG1-SIRPα (other)
heavy: QVQLVQSGAEVKKPGASVKVSCKASGYVFTDYYMNWVRQAPGQSLEWMGDINPNNAETLYNHKFKGRVTVTVDKSISTAYMELSRLRSDDTAVYYCVKWGDGPFAYWGQGTLVTVSSASTKGPSVFPLAPSSKSTSGGTAALGCLVKDYFPEPVTVSWNSGALTSGVHTFPAVLQSSGLYSLSSVVTVPSSSLGTQTYICNVNHKPSNTKVDKKVEPKSCDKTHTCPPCPAPEFEGGPSVFLFPPKPKDTLMISRTPEVTCVVVDVSHEDPEVKFNWYVDGVEVHNAKTKPREEQYNSTYRVVSVLTVLHQDWLNGKEYKCKVSNKALPASIEKTISKAKGQPREPQVYTLPPSRDELTKNQVSLTCLVKGFYPSDIAVEWESNGQPENNYKTTPPVLDSDGSFFLYSKLTVDKSRWQQGNVFSCSVMHEALHNHYTQKSLSLSPGAGGGGSGGGGSGGGGSGGGGSGEEELQIIQPDKSVLVAAGETATLRCTITSLFPVGPIQWFRGAGPGRVLIYNQRQGPFPRVTTVSDTTKRNNMDFSIRIGNITPADAGTYYCIKFRKGSPDDVEFKSGAGTELSVRAKPS
light: DIQMTQSPSSLSASVGDRVTITCKASQNVGAAVAWYQQKPGKAPKLLIYSVSDRYTGVPSRFSGSGSGTDFTLTISSLQPEDIATYYCQQYSNYPTFGQGTKLEIKRTVAAPSVFIFPPSDEQLKSGTASVVCLLNNFYPREAKVQWKVDNALQSGNSQESVTEQDSKDSTYSLSSTLTLSKADYEKHKVYACEVTHQGLSSPVTKSFNRGEC
notes: Symmetrical bifunctional antibody against PD-L1 and CD47 (SIRPα_CV1 on the heavy chain)

EC50 (human CD47): 0.167 nM
EC50 [11]: 0.0853 nM
B8: AM4B6-hIgG1-SIRPα (KIH) (other)
heavy 1: QVQLVQSGAEVKKPGASVKVSCKASGYVFTDYYMNWVRQAPGQSLEWMGDINPNNAETLYNHKFKGRVTVTVDKSISTAYMELSRLRSDDTAVYYCVKWGDGPFAYWGQGTLVTVSSASTKGPSVFPLAPSSKSTSGGTAALGCLVKDYFPEPVTVSWNSGALTSGVHTFPAVLQSSGLYSLSSVVTVPSSSLGTQTYICNVNHKPSNTKVDKKVEPKSCDKTHTCPPCPAPEFEGGPSVFLFPPKPKDTLMISRTPEVTCVVVDVSHEDPEVKFNWYVDGVEVHNAKTKPREEQYNSTYRVVSVLTVLHQDWLNGKEYKCKVSNKALPASIEKTISKAKGQPREPQVYTLPPCRDELTKNQVSLWCLVKGFYPSDIAVEWESNGQPENNYKTTPPVLDSDGSFFLYSKLTVDKSRWQQGNVFSCSVMHEALHNHYTQKSLSLSPGAGGGGSGGGGSGGGGSGGGGSGEEELQIIQPDKSVLVAAGETATLRCTITSLFPVGPIQWFRGAGPGRVLIYNQRQGPFPRVTTVSDTTKRNNMDFSIRIGNITPADAGTYYCIKFRKGSPDDVEFKSGAGTELSVRAKPS
heavy 2: QVQLVQSGAEVKKPGASVKVSCKASGYVFTDYYMNWVRQAPGQSLEWMGDINPNNAETLYNHKFKGRVTVTVDKSISTAYMELSRLRSDDTAVYYCVKWGDGPFAYWGQGTLVTVSSASTKGPSVFPLAPSSKSTSGGTAALGCLVKDYFPEPVTVSWNSGALTSGVHTFPAVLQSSGLYSLSSVVTVPSSSLGTQTYICNVNHKPSNTKVDKKVEPKSCDKTHTCPPCPAPEFEGGPSVFLFPPKPKDTLMISRTPEVTCVVVDVSHEDPEVKFNWYVDGVEVHNAKTKPREEQYNSTYRVVSVLTVLHQDWLNGKEYKCKVSNKALPASIEKTISKAKGQPREPQVCTLPPSRDELTKNQVSLSCAVKGFYPSDIAVEWESNGQPENNYKTTPPVLDSDGSFFLVSKLTVDKSRWQQGNVFSCSVMHEALHNHYTQKSLSLSPGK
light: DIQMTQSPSSLSASVGDRVTITCKASQNVGAAVAWYQQKPGKAPKLLIYSVSDRYTGVPSRFSGSGSGTDFTLTISSLQPEDIATYYCQQYSNYPTFGQGTKLEIKRTVAAPSVFIFPPSDEQLKSGTASVVCLLNNFYPREAKVQWKVDNALQSGNSQESVTEQDSKDSTYSLSSTLTLSKADYEKHKVYACEVTHQGLSSPVTKSFNRGEC
notes: Asymmetric (knob into hole) bifunctional antibody
